Test results as given in paper PMC7614720.

Substrate: C[C@@H](O)[C@H]1C(=O)N2C(C(=O)O)=C([C@H]3CCCO3)S[C@H]12
Test: purified protein
Assay type: biochemical, Stenotrophomonas maltophilia
Settings: two Zn2+ ions active site

B1: L1 (Stenotrophomonas maltophilia) (protein)
chain: VDASWLQPMAPLQIADHTWQIGTEDLTALLVQTPDGAVLLDGGMPQMASHLLDNMKARGVTPRDLRLILLSHAHADHAGPVAELKRRTGAKVAANAESAVLLARGGSDDLHFGDGITYPPANADRIVMDGEVITVGGIVFTAHFMAGHTPGSTAWTWTDTRNGKPVRIAYADSLSAPGYQLQGNPRYPHLIEDYRRSFATVRALPCDVLLTPHPGASNWDYAAGARAGAKALTCKAYADAAEQKFDGQLAKETAGAR
Which results are given for B1?
Km: 36.3 µM; kcat: 43.7 s⁻¹; kcat/Km: 1.2e+06 M⁻¹ s⁻¹
